Experimental data taken from patent US20030023032A1.

Biological target: sigma 54 (sigma^54) transcription factor from Vibrio harveyi, product of the rpoN gene (Vibrio harveyi)
Assay: cell-based or functional assay

LuxO D47E ("locked" form mimicking activated phospho-LuxO), Vibrio harveyi (from UniProt P0C5S5 1-453)
% W.T. Lux (bioluminescence per cell at high cell density); strain JAF548, luxO D47E, wild type rpoN present (% of wild type): 0.002
% W.T. Lux; strain BNL244, luxO D47E, rpoN::Cm^r (sigma^54 absent) (% of wild type): 77
% W.T. Lux; strain BNL244, luxO D47E, rpoN::Cm^r, with Plac-rpoN in trans (sigma^54 restored) (% of wild type): 1.4
Siderophore units (chromazurol S assay); strain JAF548, luxO D47E, wild type rpoN present (siderophore units): 50
Siderophore units; strain BNL244, luxO D47E, rpoN::Cm^r (sigma^54 absent) (siderophore units): 4
Siderophore units; strain BNL244, luxO D47E, rpoN::Cm^r, with Plac-rpoN in trans (sigma^54 restored) (siderophore units): 25

phospho-LuxO (wild type LuxO, constitutively phosphorylated in luxN L166R strains), Vibrio harveyi (from UniProt P0C5S5 1-453)
% W.T. Lux; strain BNL248, luxN L166R, rpoN::Cm^r (sigma^54 absent) (% of wild type): 55
% W.T. Lux; strain BNL248, luxN L166R, rpoN::Cm^r, with Plac-rpoN in trans (sigma^54 restored) (% of wild type): 1.1
% W.T. Lux; strain JAF549, luxN L166R, wild type rpoN present (% of wild type): 0.004
